Results on three molecules are retold here after patent publication US20260042850A1 (LOCKBODY THERAPEUTICS, published 2026).

Assay [1] deals with T1, human C-MET His tagged, monomeric (human, UniProt P08581 25-932).
T1 construct: also called monomeric human C-MET; biotinylated human C-MET-His
As to the kind of experiment: Alphascreen epitope competition in solution: varied IgG4(S228P) against 224G11 IgG4(S228P) binding to biotinylated human C-MET, CPS. Here is the method:
FIG. 4. Epitope competition analysis of IgG4(S228P) proteins in Alphascreen. Anti-C-MET IgG4(S228P) clones were applied in an epitope competition assay using Alphascreen technology. In this assay, library-derived and designer IgGs were analysed for their retention of the parental 224G11 epitope by competing for 224G11 IgG4(S228P) binding to human C-MET protein, in solution.
The AlphaScreen assay (Perkin Elmer) was performed in a 25 μl final volume in 384-well white microtiter plates (Greiner). The reaction buffer contained 1×PBS pH 7.3 (Oxoid, Cat. nr. BR0014G) and 0.05% (v/v) Tween® 20 (Sigma, Cat. nr. P9416). Purified IgG samples were titrated in three fold serial dilutions starting at 50 nM final concentration and incubated with biotinylated human C-MET-His (Acrobiosystems) at 1 nM final concentration for 20 minutes at room temperature. The parental IgG and the anti-human IgG4(S228P) Acceptor beads at were added and the mix was incubated for 1 hour at room temperature. Followed by addition of the Streptavidin Donor beads and incubation for 30 minutes at room temperature. The emission of light was measured in the EnVision multilabel plate reader (Perkin Elmer) and analysed using the EnVision manager software. Values were reported as Counts Per Second (CPS) and corrected for crosstalk.
On the technique in general: Alpha assays give light when donor and acceptor beads are brought close together.

Assay [2] has as its target T2, cynomolgus monkey C-MET His tag, monomeric (cynomolgus monkey, UniProt A0M8R7 25-932 (Papio anubis entry)).
T2 construct: also called monomeric cyno C-MET; cyCMET
Description: SPR Biacore, IgG captured, monomeric C-MET-His analyte. In a few lines: (§1)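 Purified IgG (50 nM) captured via immobilized anti-human CH1 antibody on a CM5 chip; monomeric His-tagged human or cyno C-MET injected as analyte, 2-fold dilutions 100 nM to 6 nM, 300 s dissociation. HBS-EP pH 7.4 running buffer, reference-channel corrected. KD from 1:1 Langmuir global fit.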

Assay [3] addresses T1, human C-MET His tagged, monomeric. The description is as above. In a few lines: as §1
For assay [4], the target named is T3, cynomolgus monkey C-MET on stably transfected CHO-K1 cells (cynomolgus monkey, UniProt A0M8R7 25-1381 (Papio anubis entry)).
T3 construct: also called cycMET; cyno C-MET+ CHO-K1 cells
Description: flow cytometry, C-MET CHO-K1 cells.

Assay [5] has as its target T4, human C-MET on stably transfected CHO-K1 cells (human, UniProt P08581 25-1390).
T4 construct: also called hucMET; human C-MET+ CHO-K1 cells
As to the kind of experiment: flow cytometry, C-MET CHO-K1 cells. (In general: A flow cytometer gives signals particle by particle.)

For assay [6], the target named is T3, cynomolgus monkey C-MET on stably …. Description: flow cytometry, C-MET CHO-K1 cells. In a few lines: (§2)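 Purified IgGs titrated three-fold from 500 nM to 0.08 nM on CHO-K1 cells stably expressing C-MET, with wild-type CHO-K1 as control. Detection by FITC-conjugated mouse anti-human IgG; MFI from 10000 cells per sample by flow cytometry.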
This is another data set of the same source.

In assay [7] the target is T4, human C-MET on stably transfected …. Description: flow cytometry, C-MET CHO-K1 cells. In a few lines:
as §2
This is another data set of the same source.

Assay [8] concerns the target T2, cynomolgus monkey C-MET His tag, …. Description: SPR Biacore. Here is the method: (§3) Affinity (KD) of purified IgGs was determined via SPR with antigen in-solution on a Biacore® 3000 (GE). A mouse anti-human antibody (CH1 specific) was immobilized on a CM5 Sensor Chip to a level of 2000 RU in acetate buffer at pH 4.5 using amine coupling following the Wizard instructions for two channels. One channel was used for background signal correction. The standard running buffer HBS-EP pH 7.4 was used. Regeneration was performed with a single injection of 10 μl of 10 mM Glycine at pH 1.5 at 20 μl/minute. IgG samples were injected for 2 minutes at 50 nM at 30 μl/min followed by and off-rate of 60 seconds. The monomeric antigen (human C-MET His tagged or cynomolgus monkey C-MET His tag) was injected in two fold serial dilutions from 100 nM down to 6 nM, for 2 minutes at 30 μl/min followed by an off-rate of 300 seconds. The obtained sensorgrams were analysed using the Biacore® 3000 evaluation (BIAevaluation) software. The KD was calculated by simultaneous fitting of the association and dissociation phases to a 1:1 Langmuir binding model.
For orientation: Surface plasmon resonance follows binding to a sensor surface in real time, without labels.

In assay [9] the target is T1, human C-MET His tagged, monomeric. As to the kind of experiment: SPR Biacore. As to the method: as §3

T3 sequence (A0M8R7 25-1381 S170N/I621T limits assumed): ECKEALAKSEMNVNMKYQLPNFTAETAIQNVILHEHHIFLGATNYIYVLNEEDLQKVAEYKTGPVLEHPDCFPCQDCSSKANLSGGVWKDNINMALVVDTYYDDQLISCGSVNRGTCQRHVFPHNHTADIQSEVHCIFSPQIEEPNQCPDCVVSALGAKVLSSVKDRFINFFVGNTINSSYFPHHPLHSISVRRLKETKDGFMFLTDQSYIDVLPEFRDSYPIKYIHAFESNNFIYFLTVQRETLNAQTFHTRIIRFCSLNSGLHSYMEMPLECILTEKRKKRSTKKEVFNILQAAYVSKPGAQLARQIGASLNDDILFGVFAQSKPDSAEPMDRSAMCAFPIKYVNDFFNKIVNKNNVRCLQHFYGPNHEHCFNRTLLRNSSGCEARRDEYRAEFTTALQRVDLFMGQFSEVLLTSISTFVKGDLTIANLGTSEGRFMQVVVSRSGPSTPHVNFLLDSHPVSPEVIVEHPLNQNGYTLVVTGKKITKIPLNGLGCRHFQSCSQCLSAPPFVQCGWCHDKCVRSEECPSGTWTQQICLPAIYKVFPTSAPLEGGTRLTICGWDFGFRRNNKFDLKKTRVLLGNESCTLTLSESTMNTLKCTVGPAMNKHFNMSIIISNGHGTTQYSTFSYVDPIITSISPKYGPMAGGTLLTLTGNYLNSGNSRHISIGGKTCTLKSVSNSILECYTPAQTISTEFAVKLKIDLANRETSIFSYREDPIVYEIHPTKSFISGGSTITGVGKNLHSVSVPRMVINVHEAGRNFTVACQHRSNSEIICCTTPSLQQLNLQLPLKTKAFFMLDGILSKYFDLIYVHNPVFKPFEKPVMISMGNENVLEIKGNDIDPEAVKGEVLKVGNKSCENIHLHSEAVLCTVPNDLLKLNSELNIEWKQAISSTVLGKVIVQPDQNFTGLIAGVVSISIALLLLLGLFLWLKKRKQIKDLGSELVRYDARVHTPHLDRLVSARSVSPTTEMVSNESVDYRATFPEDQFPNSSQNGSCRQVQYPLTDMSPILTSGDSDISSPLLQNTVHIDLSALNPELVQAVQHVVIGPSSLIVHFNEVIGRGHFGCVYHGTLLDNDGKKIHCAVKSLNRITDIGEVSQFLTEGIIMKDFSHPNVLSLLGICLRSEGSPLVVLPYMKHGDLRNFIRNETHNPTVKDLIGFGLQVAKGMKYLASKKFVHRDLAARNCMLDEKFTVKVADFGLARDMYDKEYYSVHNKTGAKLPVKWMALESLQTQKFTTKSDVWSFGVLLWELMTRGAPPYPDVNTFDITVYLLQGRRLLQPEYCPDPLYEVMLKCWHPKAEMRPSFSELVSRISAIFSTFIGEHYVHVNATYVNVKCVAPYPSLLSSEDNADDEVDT
T1 sequence (P08581 25-932): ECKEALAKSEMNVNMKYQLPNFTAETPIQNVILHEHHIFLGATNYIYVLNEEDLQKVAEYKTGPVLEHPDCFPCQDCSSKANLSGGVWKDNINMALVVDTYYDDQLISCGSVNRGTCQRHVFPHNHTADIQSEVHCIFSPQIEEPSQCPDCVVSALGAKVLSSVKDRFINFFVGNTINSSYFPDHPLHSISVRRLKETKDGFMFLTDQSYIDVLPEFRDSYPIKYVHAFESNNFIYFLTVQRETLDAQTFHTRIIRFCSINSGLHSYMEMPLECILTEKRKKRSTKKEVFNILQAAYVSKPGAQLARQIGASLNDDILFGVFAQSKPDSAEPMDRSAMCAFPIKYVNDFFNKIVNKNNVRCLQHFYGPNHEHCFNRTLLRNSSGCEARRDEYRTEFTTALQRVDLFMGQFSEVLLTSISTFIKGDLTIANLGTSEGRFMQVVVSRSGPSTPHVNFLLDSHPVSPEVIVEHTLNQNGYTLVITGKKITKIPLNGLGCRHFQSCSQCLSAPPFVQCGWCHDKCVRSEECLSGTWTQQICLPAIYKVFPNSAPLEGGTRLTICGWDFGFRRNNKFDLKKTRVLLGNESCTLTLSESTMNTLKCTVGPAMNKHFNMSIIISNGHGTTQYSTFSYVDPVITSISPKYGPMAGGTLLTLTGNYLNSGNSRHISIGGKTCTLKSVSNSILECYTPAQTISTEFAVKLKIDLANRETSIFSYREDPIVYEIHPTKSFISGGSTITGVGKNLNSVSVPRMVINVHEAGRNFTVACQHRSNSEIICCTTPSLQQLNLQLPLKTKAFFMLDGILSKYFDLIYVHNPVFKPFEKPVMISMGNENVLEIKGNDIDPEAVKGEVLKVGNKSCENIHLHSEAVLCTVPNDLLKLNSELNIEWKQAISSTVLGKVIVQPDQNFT
T2 sequence (A0M8R7 25-932 S170N/I621T): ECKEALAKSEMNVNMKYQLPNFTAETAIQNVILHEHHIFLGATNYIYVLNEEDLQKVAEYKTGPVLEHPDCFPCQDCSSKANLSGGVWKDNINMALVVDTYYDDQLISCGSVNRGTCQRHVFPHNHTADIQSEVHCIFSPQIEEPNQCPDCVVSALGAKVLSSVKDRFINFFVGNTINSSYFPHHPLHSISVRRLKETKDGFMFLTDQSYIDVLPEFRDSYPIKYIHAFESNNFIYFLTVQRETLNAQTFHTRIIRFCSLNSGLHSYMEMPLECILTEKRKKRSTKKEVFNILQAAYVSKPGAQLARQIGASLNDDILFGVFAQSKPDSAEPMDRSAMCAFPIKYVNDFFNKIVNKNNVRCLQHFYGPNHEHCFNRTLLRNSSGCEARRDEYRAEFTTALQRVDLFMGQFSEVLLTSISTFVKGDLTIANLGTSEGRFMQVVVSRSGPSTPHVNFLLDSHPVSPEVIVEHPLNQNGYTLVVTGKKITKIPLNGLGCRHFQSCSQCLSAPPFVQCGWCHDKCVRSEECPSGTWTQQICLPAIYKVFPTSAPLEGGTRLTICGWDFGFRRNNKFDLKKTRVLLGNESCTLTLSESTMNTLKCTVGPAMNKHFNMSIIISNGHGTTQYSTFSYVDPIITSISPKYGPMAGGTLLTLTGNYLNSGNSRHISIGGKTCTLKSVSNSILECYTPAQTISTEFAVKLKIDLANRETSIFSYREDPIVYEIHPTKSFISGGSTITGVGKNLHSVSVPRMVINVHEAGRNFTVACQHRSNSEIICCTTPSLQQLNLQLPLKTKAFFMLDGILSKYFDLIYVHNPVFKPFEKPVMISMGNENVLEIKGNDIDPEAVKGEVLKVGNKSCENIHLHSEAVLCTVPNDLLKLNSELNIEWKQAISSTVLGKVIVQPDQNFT
T4 sequence (P08581 25-1390 limits assumed): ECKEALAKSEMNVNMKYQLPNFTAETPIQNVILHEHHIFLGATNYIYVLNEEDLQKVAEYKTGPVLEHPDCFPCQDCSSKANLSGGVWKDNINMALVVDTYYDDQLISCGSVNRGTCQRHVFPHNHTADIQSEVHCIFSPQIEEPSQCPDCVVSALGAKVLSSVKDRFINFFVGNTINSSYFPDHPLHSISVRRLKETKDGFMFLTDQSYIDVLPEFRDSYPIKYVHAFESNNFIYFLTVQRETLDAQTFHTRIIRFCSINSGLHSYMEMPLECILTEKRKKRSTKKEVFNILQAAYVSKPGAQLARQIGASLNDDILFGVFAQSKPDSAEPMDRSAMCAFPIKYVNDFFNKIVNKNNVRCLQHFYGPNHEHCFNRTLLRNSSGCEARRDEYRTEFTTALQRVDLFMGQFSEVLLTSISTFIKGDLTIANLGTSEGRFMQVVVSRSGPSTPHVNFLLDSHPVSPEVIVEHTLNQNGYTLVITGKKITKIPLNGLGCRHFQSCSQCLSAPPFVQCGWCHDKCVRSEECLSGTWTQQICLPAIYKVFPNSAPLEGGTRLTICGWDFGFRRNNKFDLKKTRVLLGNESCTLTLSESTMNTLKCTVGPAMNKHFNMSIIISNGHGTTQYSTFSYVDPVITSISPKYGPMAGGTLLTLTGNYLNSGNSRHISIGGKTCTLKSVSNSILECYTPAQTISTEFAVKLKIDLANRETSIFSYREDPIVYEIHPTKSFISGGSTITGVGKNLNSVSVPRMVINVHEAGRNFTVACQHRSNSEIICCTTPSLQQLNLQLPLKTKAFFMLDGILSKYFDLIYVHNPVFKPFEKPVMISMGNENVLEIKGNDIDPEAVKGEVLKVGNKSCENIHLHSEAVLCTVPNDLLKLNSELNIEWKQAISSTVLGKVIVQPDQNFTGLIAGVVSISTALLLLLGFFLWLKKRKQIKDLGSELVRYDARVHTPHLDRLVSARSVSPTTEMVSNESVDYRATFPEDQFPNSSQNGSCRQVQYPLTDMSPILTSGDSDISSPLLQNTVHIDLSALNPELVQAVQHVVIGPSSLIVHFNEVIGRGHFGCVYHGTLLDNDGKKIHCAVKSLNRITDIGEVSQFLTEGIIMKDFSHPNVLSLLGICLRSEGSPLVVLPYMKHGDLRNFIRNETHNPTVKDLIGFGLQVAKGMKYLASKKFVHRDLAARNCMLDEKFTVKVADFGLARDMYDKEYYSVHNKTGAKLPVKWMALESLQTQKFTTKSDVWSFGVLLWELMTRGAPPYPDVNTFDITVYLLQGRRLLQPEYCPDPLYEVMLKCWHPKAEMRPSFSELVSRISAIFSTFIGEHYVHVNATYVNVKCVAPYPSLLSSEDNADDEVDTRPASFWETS

B1: 04E10 (antibody, IgG4, V domains shown)
VH: QVQLVQSGAEVKKPGASVKVSCKASGYIFTSYTMHWVRQAPGQGLEWMGWIKPNNGSASYAQKFQGRVTMTRDTSTSTVYMELSSLRSEDTAVYYCARSEITTEEDYWGQGTLVTVSS
VL: EIVLTQSPGTLSLSPGERATLSCRASQSVDSYANSYLHWYQQKPGQAPRLLIYRGSTRESGIPDRFSGSGSGTDFTLTISRLEPEDFAVYYCQQSKSEPLTFGGGTKVEIK
For B1, the “IC50 (read off the curve)” value in assay [1] is approximately 2 nM. Moreover, the Kd in [2] is 2.2 nM; in [3], 1.6 nM. The results for the off-rate (koff) in assay [2] and in assay [3] were 0.00011 s⁻¹ and 5e-05 s⁻¹, respectively. The kon is 49000 M⁻¹ s⁻¹ in assay [2] and 31000 M⁻¹ s⁻¹ in [3]. The “maximum MFI, fold over Isotype IgG4 background” value (“maximum MFI, fold” for short) in assay [4] and in assay [5] was more than 10 fold throughout. The EC50 in assay [6] stood at 2.94 nM; in assay [7], 9.66 nM.

B2: MH9 (antibody, IgG4, V domains shown)
VH: QVQLVQSGAEVKKPGASVKVSCKASGYTFTSYTMHWVRQAPGQGLEWMGIINPSGGSTSYAQKFQGRVTMTRDTSTSTVYMELSSLRSEDTAVYYCARQEITTEFDYWGQGTLVTVSS
VL: EIVLTQSPGTLSLSPGERATLSCRASQSVSSYAQSYLHWYQQKPGQAPRLLIYRGSTRETGIPDRFSGSGSGTDFTLTISRLEPEDFAVYYCQQYGSSPLTFGGGTKVEIK
For B2, the “fold loss of KD against MH7” value in [8] and in assay [9] was 10 to 20 fold each time. Also, the equilibrium dissociation constant (Kd) stood at 4.3 nM in assay [2] and 6.6 nM in assay [3]. Also, the koff in assay [2] is 0.00048 s⁻¹; in assay [3], 0.00039 s⁻¹. Also, the kon is 110000 M⁻¹ s⁻¹ in assay [2] and 59000 M⁻¹ s⁻¹ in [3]. The “maximum MFI, fold” value in assay [4] and in assay [5] was more than 10 fold throughout. Further, the 50% effective concentration (EC50) amounted to 0.65 nM in assay [6] and 1.23 nM in assay [7].

B3: MH8 (antibody, IgG4, V domains shown)
VH: QVQLVQSGAEVKKPGASVKVSCKASGYTFTSYTMHWVRQAPGQGLEWMGIINPSGGSTSYAQKFQGRVTMTRDTSTSTVYMELSSLRSEDTAVYYCARQEITTEFDYWGQGTLVTVSS
VL: EIVLTQSPGTLSLSPGERATLSCRASQSVSSYAQSYLHWYQQKPGQAPRLLIYRGSTRETGIPDRFSGSGSGTDFTLTISRLEPEDFAVYYCQQSGSSPLTFGGGTKVEIK
For B3, the “fold loss of KD against MH7” value in assay [8] and in assay [9] was 10 to 20 fold each time. Also, the Kd in assay [2] worked out at 1.3 nM; in [3], 2.2 nM. Moreover, the off-rate (koff) in assay [2] stood at 0.00021 s⁻¹; in [3], 0.00015 s⁻¹. For the same molecule, the kon in [2] amounted to 160000 M⁻¹ s⁻¹; in assay [3] it was 66000 M⁻¹ s⁻¹. The “maximum MFI, fold” value in assay [4] and in assay [5] was more than 10 fold each time. Also, the EC50 is 0.57 nM in assay [6] and 1.24 nM in assay [7].

Broadly, the Kd is a measure of binding affinity in units of concentration. One may read the koff as a measure of how fast the partners let go of each other. One may read the kon as a measure of how fast the partners come together. Usually EC50 stands for the concentration at which the effect is half-maximal.
